Patent US20140087995A1 (published 2014)
Where two headings read alike, the source gives them in different places. Numbered stars: 1 amine (or outer) side, 2 acyl side, 3 side chain; on linkers, the order of the positions; unused ones are H or OH. Bridge positions count the residues as written; N and C are the ends. Side chains are listed from the residue outwards. Ends that are not written are not given here. * marks the point of attachment. C20 diacid = O=C(O)CCCCCCCCCCCCCCCCCCC(=O)*; γGlu = O=C(O)[C@H](CCC(=O)[*:2])N[*:1]; AEEA = NCCOCCOCC(=O)O

T1: human amylin receptor (amylin 3(a) receptor: human calcitonin receptor plus RAMP-3) (human, UniProt P30988 25-474; O60896 24-148)
T1 construct: whole, on cells; functional assay used the whole cells; also called hAmylin-R; hAmylinR
T1 sequence (looked up) 1: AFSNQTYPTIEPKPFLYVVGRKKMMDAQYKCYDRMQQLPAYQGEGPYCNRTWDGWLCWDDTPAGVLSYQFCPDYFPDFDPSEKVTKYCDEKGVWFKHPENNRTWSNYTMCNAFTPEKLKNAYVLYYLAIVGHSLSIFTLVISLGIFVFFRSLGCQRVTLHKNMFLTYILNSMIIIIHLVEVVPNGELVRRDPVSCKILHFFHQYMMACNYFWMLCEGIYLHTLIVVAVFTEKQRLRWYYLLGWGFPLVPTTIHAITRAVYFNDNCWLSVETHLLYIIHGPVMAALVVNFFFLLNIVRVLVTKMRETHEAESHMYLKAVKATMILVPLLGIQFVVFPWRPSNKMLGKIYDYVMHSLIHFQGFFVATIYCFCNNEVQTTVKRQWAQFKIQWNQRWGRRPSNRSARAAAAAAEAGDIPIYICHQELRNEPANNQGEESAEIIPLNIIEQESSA
T1 sequence (looked up) 2: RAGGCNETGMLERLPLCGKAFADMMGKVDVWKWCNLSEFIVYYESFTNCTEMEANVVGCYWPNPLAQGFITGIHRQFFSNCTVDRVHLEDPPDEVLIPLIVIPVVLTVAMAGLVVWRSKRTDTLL

T2: human calcitonin receptor (human, UniProt P30988 25-474)
T2 sequence (looked up): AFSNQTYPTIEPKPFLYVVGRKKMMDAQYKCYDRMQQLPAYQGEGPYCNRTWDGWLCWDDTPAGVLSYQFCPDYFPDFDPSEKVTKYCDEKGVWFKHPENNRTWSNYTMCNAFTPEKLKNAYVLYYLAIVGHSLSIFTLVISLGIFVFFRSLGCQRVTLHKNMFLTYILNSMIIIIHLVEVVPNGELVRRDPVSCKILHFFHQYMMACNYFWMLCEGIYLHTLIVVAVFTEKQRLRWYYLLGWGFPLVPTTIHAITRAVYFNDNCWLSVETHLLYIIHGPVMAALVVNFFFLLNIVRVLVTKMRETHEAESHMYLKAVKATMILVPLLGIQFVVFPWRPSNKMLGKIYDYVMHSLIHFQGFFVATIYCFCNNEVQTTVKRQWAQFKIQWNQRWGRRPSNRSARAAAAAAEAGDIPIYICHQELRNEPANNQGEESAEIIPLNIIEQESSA


What was measured:
[1] = biological target: T1, human amylin receptor (amylin 3(a) …); assay: SPA competition, displacement of 125I-rat amylin from membranes of BHK cells with human calcitonin receptor + RAMP-3 (Assay V)
Method: (§1) The binding assay was performed using scintillation proximity assay (SPA) beads (RPNQ0001) from PerkinElmer and cell membranes from the Amylin 3(a)/CRE-luc cells (as described in Assay (II)) were used. Membranes were prepared in the following way; the cells were rinsed with PBS and incubated with Versene for approximately 5 min before harvesting. The cells were flushed with PBS and the cell-suspension was centrifuged for 5 min at 1000 rpm. Cells were homogenized (ultrathurrax) in a buffer containing 20 mM Na-HEPES and 10 mM EDTA (pH 7.4) and centrifuged at 20.000 rpm for 15 min. The resulting pellet was resuspended, homogenized and centrifuged (20.000 rpm, 15 min) in a buffer containing 20 mM Na-HEPES and 0.1 mM EDTA (pH 7.4, buffer 2). The resulting pellet was resuspended in buffer 2 and protein concentration was measured (BCA protein Assay, Pierce). The homogenate was kept cold during the whole procedure. The membranes were kept at −80° C. until use. The assay was performed in a 384 well Optiplate (PerkinElmer) in a total volume of 40 ul. Membranes were mixed with SPA beads. Final concentration of membranes 35 ng/μL final and SPA beads was 0.05 mg/well. Test-compounds were dissolved in DMSO and further diluted in assay buffer (50 mM Hepes, pH 7.4, 1 mM CaCl2, 5 mM MgCl₂, 0.1% OA and 0.02% Tween20). […] The final mixture was incubated with shaking at 400 rpm for 120 min at 25° C. prior to centrifugation (1500 rpm, 10 min). Samples were analyzed on TopCounter™ (Packard). The IC₅₀ was calculated using (one site binding competition analysis) GraphPad Prism5 as a measure of receptor affinity.

[2] = biological target: T1, human amylin receptor (amylin 3(a) …); assay: cell-based or functional assay
[3] = biological target: T2, human calcitonin receptor; assay: cell-based or functional assay
[4] = biological target: T1, human amylin receptor (amylin 3(a) …); assay: SPA competition, displacement of 125I-rat amylin from membranes of BHK cells with human calcitonin receptor + RAMP-3 (Assay V); remark: listed apart in the source
Method: as §1

[5] = biological target: T1, human amylin receptor (amylin 3(a) …); assay: cell-based or functional assay; remark: listed apart in the source
[6] = biological target: T2, human calcitonin receptor; assay: cell-based or functional assay; remark: listed apart in the source

IC50 [1] | Ratio hCT/hAmylin funct. [2] | hAmylin-R funct. EC50 (pM) [2] | hCTR funct. EC50 (pM) [3] | IC50 [4] | Ratio hCT/hAmylin funct. [5] | hAmylin-R funct. EC50 (pM) [5] | hCTR funct. EC50 (pM) [6] | Binder
0.275 nM | 24 | 198 pM | 4750 pM | 0.275 nM | 24 | 198 pM | 4750 pM | K([γGlu-C20 diacid])RCNTATCATQRLANFLRHSSPNFGAIPSSTNVGSHTY-NH2 (disulfide 3-8; N-terminus assumed; SMILES CC[C@H](C)[C@H](NC(=O)[C@H](C)NC(=O)CNC(=O)[C@H](Cc1ccccc1)NC(=O)[C@H](CC(N)=O)NC(=O)[C@@H]1CCCN1C(=O)[C@H](CO)NC(=O)[C@H](CO)NC(=O)[C@H](Cc1c[nH]cn1)NC(=O)[C@H](CCCNC(=N)N)NC(=O)[C@H](CC(C)C)NC(=O)[C@H](Cc1ccccc1)NC(=O)[C@H](CC(N)=O)NC(=O)[C@H](C)NC(=O)[C@H](CC(C)C)NC(=O)[C@H](CCCNC(=N)N)NC(=O)[C@H](CCC(N)=O)NC(=O)[C@@H](NC(=O)[C@H](C)NC(=O)[C@@H]1CSSC[C@H](NC(=O)[C@H](CCCNC(=N)N)NC(=O)[C@@H](N)CCCCNC(=O)CC[C@H](NC(=O)CCCCCCCCCCCCCCCCCCC(=O)O)C(=O)O)C(=O)N[C@@H](CC(N)=O)C(=O)N[C@@H]([C@@H](C)O)C(=O)N[C@@H](C)C(=O)N[C@@H]([C@@H](C)O)C(=O)N1)[C@@H](C)O)C(=O)N1CCC[C@H]1C(=O)N[C@@H](CO)C(=O)N[C@@H](CO)C(=O)N[C@H](C(=O)N[C@@H](CC(N)=O)C(=O)N[C@H](C(=O)NCC(=O)N[C@@H](CO)C(=O)N[C@@H](Cc1c[nH]cn1)C(=O)N[C@H](C(=O)N[C@@H](Cc1ccc(O)cc1)C(N)=O)[C@@H](C)O)C(C)C)[C@@H](C)O, N-terminal extension by Lys at position -1; also called compound 44)
0.552 nM | 17 | 594 pM | 10100 pM | 0.552 nM | 17 | 594 pM | 10100 pM | K([AEEA-γGlu-C20 diacid])RCNTATCATQRLANFLRHSSPNFGAIPSSTNVGSHTY-NH2 (disulfide 3-8; N-terminus assumed; SMILES CC[C@H](C)[C@H](NC(=O)[C@H](C)NC(=O)CNC(=O)[C@H](Cc1ccccc1)NC(=O)[C@H](CC(N)=O)NC(=O)[C@@H]1CCCN1C(=O)[C@H](CO)NC(=O)[C@H](CO)NC(=O)[C@H](Cc1c[nH]cn1)NC(=O)[C@H](CCCNC(=N)N)NC(=O)[C@H](CC(C)C)NC(=O)[C@H](Cc1ccccc1)NC(=O)[C@H](CC(N)=O)NC(=O)[C@H](C)NC(=O)[C@H](CC(C)C)NC(=O)[C@H](CCCNC(=N)N)NC(=O)[C@H](CCC(N)=O)NC(=O)[C@@H](NC(=O)[C@H](C)NC(=O)[C@@H]1CSSC[C@H](NC(=O)[C@H](CCCNC(=N)N)NC(=O)[C@@H](N)CCCCNC(=O)COCCOCCNC(=O)CC[C@H](NC(=O)CCCCCCCCCCCCCCCCCCC(=O)O)C(=O)O)C(=O)N[C@@H](CC(N)=O)C(=O)N[C@@H]([C@@H](C)O)C(=O)N[C@@H](C)C(=O)N[C@@H]([C@@H](C)O)C(=O)N1)[C@@H](C)O)C(=O)N1CCC[C@H]1C(=O)N[C@@H](CO)C(=O)N[C@@H](CO)C(=O)N[C@H](C(=O)N[C@@H](CC(N)=O)C(=O)N[C@H](C(=O)NCC(=O)N[C@@H](CO)C(=O)N[C@@H](Cc1c[nH]cn1)C(=O)N[C@H](C(=O)N[C@@H](Cc1ccc(O)cc1)C(N)=O)[C@@H](C)O)C(C)C)[C@@H](C)O, N-terminal extension by Lys at position -1; also called compound 45)
0.695 nM | 15.3 | 351 pM | 5360 pM | 0.695 nM | 15.3 | 351 pM | 5360 pM | K([γGlu-C20 diacid])CNTATCATQRLANFLRHSSPNFGAIPSSTNVGSHTY-NH2 (disulfide 2-7; N-terminus assumed; SMILES CC[C@H](C)[C@H](NC(=O)[C@H](C)NC(=O)CNC(=O)[C@H](Cc1ccccc1)NC(=O)[C@H](CC(N)=O)NC(=O)[C@@H]1CCCN1C(=O)[C@H](CO)NC(=O)[C@H](CO)NC(=O)[C@H](Cc1c[nH]cn1)NC(=O)[C@H](CCCNC(=N)N)NC(=O)[C@H](CC(C)C)NC(=O)[C@H](Cc1ccccc1)NC(=O)[C@H](CC(N)=O)NC(=O)[C@H](C)NC(=O)[C@H](CC(C)C)NC(=O)[C@H](CCCNC(=N)N)NC(=O)[C@H](CCC(N)=O)NC(=O)[C@@H](NC(=O)[C@H](C)NC(=O)[C@@H]1CSSC[C@H](NC(=O)[C@@H](N)CCCCNC(=O)CC[C@H](NC(=O)CCCCCCCCCCCCCCCCCCC(=O)O)C(=O)O)C(=O)N[C@@H](CC(N)=O)C(=O)N[C@@H]([C@@H](C)O)C(=O)N[C@@H](C)C(=O)N[C@@H]([C@@H](C)O)C(=O)N1)[C@@H](C)O)C(=O)N1CCC[C@H]1C(=O)N[C@@H](CO)C(=O)N[C@@H](CO)C(=O)N[C@H](C(=O)N[C@@H](CC(N)=O)C(=O)N[C@H](C(=O)NCC(=O)N[C@@H](CO)C(=O)N[C@@H](Cc1c[nH]cn1)C(=O)N[C@H](C(=O)N[C@@H](Cc1ccc(O)cc1)C(N)=O)[C@@H](C)O)C(C)C)[C@@H](C)O, also called compound 60) [N^ε1-[(4S)-4-carboxy-4-(19-carboxynonadecanoylamino)butanoyl]-[Arg17,Pro21,Pro27,His35]-h-amylin]
0.377 nM | – | 172 pM | 2830 pM | 0.377 nM | – | 172 pM | 2830 pM | K([γGlu-γGlu-C20 diacid])CNTATCATQRLAEFLRHSSPNFGAIPSSTNVGPHTY-NH2 (disulfide 2-7 (inferred))
0.396 nM | 20.1 | 27 pM | 542 pM | 0.396 nM | 20.1 | 27 pM | 542 pM | K([γGlu-C20 diacid])CNTATCATQRLAHFLRHSSPNFGAIPSSTNVGSHTY-NH2 (disulfide 2-7; N-terminus assumed; SMILES CC[C@H](C)[C@H](NC(=O)[C@H](C)NC(=O)CNC(=O)[C@H](Cc1ccccc1)NC(=O)[C@H](CC(N)=O)NC(=O)[C@@H]1CCCN1C(=O)[C@H](CO)NC(=O)[C@H](CO)NC(=O)[C@H](Cc1c[nH]cn1)NC(=O)[C@H](CCCNC(=N)N)NC(=O)[C@H](CC(C)C)NC(=O)[C@H](Cc1ccccc1)NC(=O)[C@H](Cc1c[nH]cn1)NC(=O)[C@H](C)NC(=O)[C@H](CC(C)C)NC(=O)[C@H](CCCNC(=N)N)NC(=O)[C@H](CCC(N)=O)NC(=O)[C@@H](NC(=O)[C@H](C)NC(=O)[C@@H]1CSSC[C@H](NC(=O)[C@@H](N)CCCCNC(=O)CC[C@H](NC(=O)CCCCCCCCCCCCCCCCCCC(=O)O)C(=O)O)C(=O)N[C@@H](CC(N)=O)C(=O)N[C@@H]([C@@H](C)O)C(=O)N[C@@H](C)C(=O)N[C@@H]([C@@H](C)O)C(=O)N1)[C@@H](C)O)C(=O)N1CCC[C@H]1C(=O)N[C@@H](CO)C(=O)N[C@@H](CO)C(=O)N[C@H](C(=O)N[C@@H](CC(N)=O)C(=O)N[C@H](C(=O)NCC(=O)N[C@@H](CO)C(=O)N[C@@H](Cc1c[nH]cn1)C(=O)N[C@H](C(=O)N[C@@H](Cc1ccc(O)cc1)C(N)=O)[C@@H](C)O)C(C)C)[C@@H](C)O, also called compound 66)
0.179 nM | – | 101 pM | 1450 pM | 0.179 nM | – | 101 pM | 1450 pM | K([γGlu-C20 diacid])CNTATCATQRLAEFLRHSSPNFGAIPSSTNVGPHTY-NH2 (disulfide 2-7)
